Where “and” joins values, the source holds several entries; their conditions need not be identical. Identical values can stand only once.
Target: Biotinylated C3b (human) (UniProt P01024)
Assay: BLI; biotinylated C3b on streptavidin sensors; FPht variants at 100 to 1.56 μg/mL, 60 s steps; 30°C; 20 mM MES pH 6.0, 100 mM NaCl, 0.05% Tween, 1 mg/mL BSA; steady state 1:1 fit (for WT also kinetic analysis)

Biotinylated C3b (human), sequence (P01024 23-667, chain 1 of 2): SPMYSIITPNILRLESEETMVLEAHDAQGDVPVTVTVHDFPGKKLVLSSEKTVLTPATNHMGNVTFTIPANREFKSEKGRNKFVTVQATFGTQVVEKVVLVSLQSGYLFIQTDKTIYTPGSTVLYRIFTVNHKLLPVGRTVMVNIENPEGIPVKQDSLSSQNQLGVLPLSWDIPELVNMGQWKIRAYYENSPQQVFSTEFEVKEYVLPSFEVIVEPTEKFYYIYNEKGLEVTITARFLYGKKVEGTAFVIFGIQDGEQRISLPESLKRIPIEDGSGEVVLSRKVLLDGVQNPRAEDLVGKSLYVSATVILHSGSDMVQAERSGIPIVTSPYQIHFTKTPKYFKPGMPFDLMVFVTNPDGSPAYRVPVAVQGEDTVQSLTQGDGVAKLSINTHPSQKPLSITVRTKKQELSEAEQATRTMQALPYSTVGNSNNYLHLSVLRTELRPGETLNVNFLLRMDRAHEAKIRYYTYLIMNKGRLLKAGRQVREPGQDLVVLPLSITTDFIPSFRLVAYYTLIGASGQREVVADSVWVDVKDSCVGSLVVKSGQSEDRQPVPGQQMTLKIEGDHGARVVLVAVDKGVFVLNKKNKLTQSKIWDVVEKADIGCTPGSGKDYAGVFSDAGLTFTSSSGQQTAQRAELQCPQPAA
Biotinylated C3b (human), sequence (P01024 749-1663, chain 2 of 2): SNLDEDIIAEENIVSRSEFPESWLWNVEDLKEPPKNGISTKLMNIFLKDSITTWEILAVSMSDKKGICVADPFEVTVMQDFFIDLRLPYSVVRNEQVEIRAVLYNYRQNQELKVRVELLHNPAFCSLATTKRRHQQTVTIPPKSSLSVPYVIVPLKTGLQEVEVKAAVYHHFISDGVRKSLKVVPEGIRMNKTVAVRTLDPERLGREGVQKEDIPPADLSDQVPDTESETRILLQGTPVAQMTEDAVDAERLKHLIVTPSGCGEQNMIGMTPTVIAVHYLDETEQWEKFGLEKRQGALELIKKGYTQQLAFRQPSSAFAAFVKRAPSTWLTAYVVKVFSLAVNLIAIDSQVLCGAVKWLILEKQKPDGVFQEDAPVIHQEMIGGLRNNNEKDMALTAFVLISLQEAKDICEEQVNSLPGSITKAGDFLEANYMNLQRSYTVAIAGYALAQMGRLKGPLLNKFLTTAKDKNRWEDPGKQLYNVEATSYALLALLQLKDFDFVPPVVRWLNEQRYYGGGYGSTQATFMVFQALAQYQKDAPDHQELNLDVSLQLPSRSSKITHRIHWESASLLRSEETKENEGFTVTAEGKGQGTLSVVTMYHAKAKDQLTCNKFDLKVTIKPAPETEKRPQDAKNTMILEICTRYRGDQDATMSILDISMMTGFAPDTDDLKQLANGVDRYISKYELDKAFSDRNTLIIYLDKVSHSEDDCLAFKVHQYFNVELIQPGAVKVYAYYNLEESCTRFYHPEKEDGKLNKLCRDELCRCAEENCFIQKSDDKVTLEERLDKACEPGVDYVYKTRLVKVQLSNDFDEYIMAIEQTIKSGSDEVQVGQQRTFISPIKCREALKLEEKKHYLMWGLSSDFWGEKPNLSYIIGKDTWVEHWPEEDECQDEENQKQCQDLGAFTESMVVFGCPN

With “FPht, monomeric FP head-tail protein from co-expression of FPh and FPt (complex)” the Kd was 320 nM and 350 nM.
